Changes are numbered by the printed parent chain. Numbers in names are those of the source.
B1: SpyCatcher002 D5A variant with proline at position 92 and aspartic acid at position 100 (SEQ ID NO:47) (designed binder)
chain: GAMVATLSGLSGEQGPSGDMTTEEDSATHIKFSKRDEDGRELAGATMELRDSSGKTISTWISDGHVKDFYLYPGKYTFVETAAPDGYEVATPITFTVNEDGQVTVNGEATKGDAHT
B2: SpyCatcher002 D5A variant with proline at position 92 (SEQ ID NO:45) (designed binder)
chain: B1 chain with D100Q
B3: SpyCatcher002 D5A variant with aspartic acid at position 100 (SEQ ID NO:46) (designed binder)
chain: B1 chain with P92A

Experiments:
SpyCatcher002 = assay: 0.5 µM each, PBS pH 7.5, 25 °C, SDS-PAGE with Coomassie staining (FIG. 15A)
Target sequence in this assay (chain, as listed by the source): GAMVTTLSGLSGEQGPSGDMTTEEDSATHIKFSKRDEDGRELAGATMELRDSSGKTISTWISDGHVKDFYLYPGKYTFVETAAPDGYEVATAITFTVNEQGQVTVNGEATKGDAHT

AP-SpyTag002-MBP = molecular target: T1, AP-SpyTag002-MBP; assay: 0.5 µM each, PBS pH 7.5, 25 °C, SDS-PAGE with Coomassie staining (FIG. 16)
T1 construct: not shown: AP peptide tag for site-specific biotinylation; only primer DNA is printed for it

| Molecule | percent increase in activity against SpyTag002 (SEQ ID NO: 3) (SpyCatcher002) [%] | reaction rate (second-order rate constant) (AP-SpyTag002-MBP) [µM⁻¹ min⁻¹] |
| --- | --- | --- |
| SpyTag002 T3H-MBP | 35 | – |
| B1 | – | 1.22 |
| B2 | – | 0.84 |
| B3 | – | 0.93 |

From US20220119459A1 (OXFORD UNIVERSITY INNOVATION, published 2022)
